Test results reported in patent publication US9435807B2, “Use of leucyl tRNA synthetase” (Medicinal Bioconvergence Research Center, priority 2011, dated 2016).
Changes are numbered by the printed parent chain. Numbers in names are those of the source. Each block holds one molecule with its values, some of them ahead of it.

Tests used:
[1] = biological target: T1, LRS-(1-1176) / RagD binding (Homo sapiens, UniProt Q9NQL2); test: ELISA for binding between LRS and RagD; conditions: GST-RagD on plate coated with His-LRS-(1-1176), fragment added during incubation
T1 construct: Purified GST-RagD was incubated with His-LRS-(1-1176) coated on a plate; made in house; host or cells: E. coli BL21(DE3) for His-LRS (pET 16a); E. coli BL21 for GST-RagD (pGEX4T3)
Protocol: FIGS. 13a and 13b show ELISA assay results for measuring binding affinity between LRS and RagD.
In FIG. 13b, the comparison result of binding affinity for control (GST), RagD and RagD+LRS-(759-1176) on a 96 well plate coated with LRS-(1-1176) is shown.
First, each fragment of LRS was synthesized by PCR amplification using the cDNA of LRS as a template and a primer set (Table 1) specific for each fragment. The PCR amplification was performed under the following conditions: predenaturation of the template DNA at 95° C. for 2 min; and then 30 cycles, each consisting of 30 sec at 95° C., 30 sec at 56° C., and 3 min and 30 sec at 72° C.; followed by final extension at 72° C. for 10 min. Each of the PCR products was digested with NdeI and BamHI and ligated into a pET 16a vector (Novagen) digested with the same restriction enzymes. E. coli BL21(DE3) cells were transformed with the vector and cultured to induce the expression of peptides. Each peptide expressed as a His-tag fusion protein was purified by Ni-chelating agarose. […]
A fragment of RagD was synthesized by PCR amplification using the cDNA of […] as a template and a primer set (Table 1) specific for each fragment. […] Each peptide expressed as a GST-tag fusion protein was purified by GSH agarose. […]

RagD GTPase = biological target: T2, RagD GTPase (Homo sapiens, UniProt Q9NQL2); test: In vitro GTPase assay; assay type: biochemical; conditions: LRS (759-1176 a.a) fragment incubated with RagD, 37° C.
T2 construct: made in house; host or cells: LRS fragment: E. coli BL21(DE3), pET 16a
Protocol: In FIG. 7a, the indicated amounts of Histagged LRS (759-1176 a.a) fragment were incubated with 0.15 pM RagD for 20 min at 37° C. The error bars represent mean S.D. (n=3).
In FIG. 7b, his-tagged LRS fragments (0.3 μM) were incubated with RagD for the indicated times. The error bars represent mean S.D. (n=3).
In FIG. 7d, the effects of LRS WT and mutants on GTP hydrolysis of RagD is shown. Purified LRS WT (759-1176 a.a) fragment or mutants (H844A, R845A) fragments were incubated with RagD for 20 min at 37° C. The error bars represent mean S.D. (n=3).
GTPase assays were conducted in assay buffer (20 mM piperazine-N,N9-bis(2-ethanesulfonic acid), 20 mM HEPES, 5 mM MgCl2, 125 mM NaCl, 5 mM KCl at pH 7.0, 0.5 mM GTP) containing 0.1% bovine serum albumin in a final volume of […] using GTPase assay kit (Innova Biosciences) according to manufacturer's instructions.

T2 sequence (Q9NQL2 whole entry, the tested form may be a part): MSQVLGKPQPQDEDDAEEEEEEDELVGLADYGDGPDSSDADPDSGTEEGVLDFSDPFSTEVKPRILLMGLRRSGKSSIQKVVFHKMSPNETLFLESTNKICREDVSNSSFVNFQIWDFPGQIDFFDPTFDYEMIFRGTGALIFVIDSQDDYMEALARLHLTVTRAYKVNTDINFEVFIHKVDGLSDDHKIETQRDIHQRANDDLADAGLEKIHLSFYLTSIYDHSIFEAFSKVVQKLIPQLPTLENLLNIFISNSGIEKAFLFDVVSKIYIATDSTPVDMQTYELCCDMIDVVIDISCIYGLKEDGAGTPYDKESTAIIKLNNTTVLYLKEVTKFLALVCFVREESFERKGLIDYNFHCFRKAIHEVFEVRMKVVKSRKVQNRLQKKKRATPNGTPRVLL
T1 sequence (Q9NQL2 whole entry, the tested form may be a part): as above

binding between RagD and LRS-(1-1176) [1]: inhibited
binding between RagD and LRS-(1-1176) ([1]; listed as LRS-(759-1176)): decreased the binding affinity
B1: His-LRS-(759-1176): His-tagged fragment of leucyl tRNA synthetase, residues 759-1176 (protein)
chain: MADAGILRLYTWVEWVKEMVANWDSLRSGPASTFNDRVFASELNAGIIKTDQNYEKMMFKEALKTGFFEFQAAKDKYRELAVEGMHRELVFRFIEVQTLLLAPFCPHLCEHIWTLLGKPDSIMNASWPVAGPVNEVLIHSSQYLMEVTHDLRLRLKNYMMPAKGKKTDKQPLQKPSHCTIYVAKNYPPWQHTTLSVLRKHFEANNGKLPDNKVIASELGSMPELKKYMKKVMPFVAMIKENLEKMGPRILDLQLEFDEKAVLMENIVYLTNSLELEHIEVKFASEAEDKIREDCCPGKPLNVFRIEPGVSVSLVNPQPSNGHFSTKIEIRQGDNCDSIIRRLMKMNRGIKDLSKVKLMRFDDPLLGPRRVPVLGKEYTEKTPISEHAVFNVDLMSKKIHLTENGIRVDIGDTIIYLVH
modifications: left off: small tags and cut ends
GTP hydrolysis by RagD GTPase (GAP activity) (RagD GTPase): enhanced GTP hydrolysis by RagD GTPase in dose- and time-dependent manner

GTP hydrolysis by RagD GTPase (GAP activity) (RagD GTPase): lost their GAP activity
B2: R845A: LRS (759-1176 a.a) fragment with alanine mutation R845A in the putative GAP motif (protein, UniProt Q9P2J5 759-1176, looked up, variant R845A)
chain: B1 chain with R87A

GTP hydrolysis by RagD GTPase (GAP activity) (RagD GTPase): lost their GAP activity
B3: H844A: LRS (759-1176 a.a) fragment with alanine mutation H844A in the putative GAP motif (protein, UniProt Q9P2J5 759-1176, looked up, variant H844A)
chain: B1 chain with H86A
